Laboratory results as given in PMC2685030, “SmCL3, a Gastrodermal Cysteine Protease of the Human Blood Fluke Schistosoma mansoni” (PLoS Neglected Tropical Diseases, 2009).

Test system: Cc1cc(=O)oc2cc(NC(=O)[C@H](CCCNC(=N)N)NC(=O)[C@H](Cc3ccccc3)NC(=O)OCc3ccccc3)ccc12
Assay: purified protein
Settings: pH 6.0 citrate-phosphate, 25°C, 3 nM enzyme

SmCL3 (Schistosoma mansoni) was tested, and the Km was 20.2 µM.
